Key:
[1] = test system: polarized colon cancer T84 cells; experiment: Transepithelial electrical resistance (TEER) on polarized T84 cells; format: cell-based; details: for Effect on the TEER: added for 1 hour to the apical side of transwell cultures; for TEER compared to JO-1: dimeric affinity-enhanced mutants, TEER at 4 hours
Procedure: (§1) FIG. 5A-5B. Correlation of reduced DSG2 binding with the ability to open epithelial junctions. FIG. 5A) Transepithelial electrical resistance (TEER) measured on polarized colon cancer T84 cells. Cells were cultured in transwell chambers until the TEER was constant, i.e. tight junctions had formed. A total of 5 μg of dimeric Ad3 fiber knobs in PBS was then added for 1 hour to the apical chamber. TEER was measured at the indicated time points. N=6. For time points 1.5 and 4 hours the difference between JO-1 vs D261N and N186D was significant (p<0.01). The arrows indicate the addition and removal of Ad3 fiber knobs. FIG. 5B) Enhancement of irinotecan therapy. A total of 4×10^6 A549 cells were injected subcutaneously into CB17-SCID/beige mice. Once the tumor reached a volume of ˜100 mm^3 (day 15 after implantation), the mice were injected intravenously with 2 mg/kg JO-1, E299V, N186D, or PBS, followed by an intravenous injection of irinotecan (37.5 mg/kg) one hour later. The treatment was repeated on day 25. N=5. […] The difference between “irinotecan” vs “JO-1+irinotecan” was significant (p<0.01) from day 20 on.
FIG. 9A1-9C. Analysis of dimeric Ad3 fiber knob mutants with increased affinity to DSG2. FIG. 9A1-9A2) Competition of Ad3-GFP virus infection on HeLa cells with dimeric affinity-enhanced mutant Y250F and JO-1 (dimeric wt Ad3 fiber knob). The experimental setting is as described for FIG. 3C. FIG. 9A1) percentage of GFP positive cells. FIG. 9A2) mean fluorescence intensity. N=3. The standard deviation was less than 10%. FIG. 9B1-9B2) Competition of Ad3-GFP virus infection on HeLa cells by Ad3 knob mutants with enhanced DSG2 binding but without dimerization domain. 1.5×10^5 HeLa cells were seeded into 24 well plates. Cells were incubated with the Ad3 knob mutants at the increasing concentrations for one hour at room temperature. 100 pfu/cell of Ad3GFP virus were then added and GFP expression was analyzed 18 hours later. FIG. 9B1) % of GFP+cells; FIG. 9B2) MFI. FIG. 9C) TEER on colon cancer T84 cells. The experimental setting was the same as for FIG. 5A. The TEER at 4 hours is shown. N=3.
Permeability assay. A total of 5×10^5 T84 cells were seeded in 12 mm transwell inserts (PET membrane, with 0.4 μm pore size (Corning, NY) and cultured for >14 days until transepithelial electrical resistance (TEER) was stable. Culture medium was changed every 2-3 days. The cells were exposed to DSG2 ligands (20 μg/ml) in adhesion medium (DMEM, 1% FBS, 2 mM MgCl2, 20 mM HEPES) for 15 min at room temperature and TEER was measured and calculated as described elsewhere (39).

A549 xenograft tumors = experiment: Enhancement of irinotecan therapy in A549 xenograft tumors; format: in vivo, CB17-SCID/beige mice; details: 2 mg/kg i.v. one hour before irinotecan 37.5 mg/kg i.v.; tumor volume
Procedure: as §1
FIG. 10A-10C. Combination of affinity-enhanced JO-1 versions with chemotherapy. FIG. 10A) Enhancement of irinotecan (I) therapy. The experimental setting was the same as in FIG. 5B. […] N=5. […] Mammary fat pad tumors were established from primary ovarian cancer ovc316 cells. Treatment was started when tumors reached a volume of 100 mm^3. Mice were injected intravenously with 2 mg/kg JO-1 or with 0.5 mg/kg JO-4, followed by an intravenous injection of PEGylated liposomal doxorubicin (PLD) (1 mg/kg) one hour later. Treatment was repeated weekly. […] A total of 4×10^6 TNBC MDA-MB-231 cells were injected into the mammary fat pad of CB17 SCID-beige mice. JO-4 (2 mg/kg) was intravenously injected 1 hour before the application of cetuximab (C) (10 mg/kg, i.p.) and nab-paclitaxel (nab-P) (5 mg/kg, i.v.). Treatment was given weekly. N=10 P<0.01 at day 25 for nab-P+C vs JO-4+nab-P+C.
A549, MDA-MB-231, and ovc316 xenograft tumors were established by injection of the corresponding tumor cells into the mammary fat pad (1:1 with Matrigel) of CB17 mice. TC1-DSG2 tumors were established by subcutaneous injection of TC1-DSG2 cells into DSG2 transgenic mice. JO-0, JO-1, JO-2, or JO-4 were intravenously injected one hour before the application of chemotherapeutic drugs: Irinotecan/Camptosar™ (Pfizer Inc., Groton, CT), PEGylated liposomal doxorubicin/Lipodox™ (Sun Pharmaceuticals IN, India), cetuximab/Erbitux™ (ImClone, Somerville, NJ), nanoparticle albumin conjugated paclitaxel/Abraxane” (Abraxis Biosciences, Summit, NJ). Tumor volumes were measured three times a week. Each treatment group consisted of a minimum of 5 mice.

Row | Molecule | Effect on the TEER [1] | Enhancement of irinotecan therapy (A549 xenograft tumors) | TEER compared to JO-1 [1]
1 | N186D (protein) MKVSALKEKVSALKEKVSALKEKVSALKEKVSALKEGSGGGSGGGSGGGSNSIALKNNTLWTGPKPEANCIIEYGKQNPDSKLTLILVKNGGIVNGYVTLMGASDYVNTLFKDKNVSINVELYFDATGHILPDSSSLKTDLELKYKQTADFSARGFMPSTTAYPFVLPNAGTHNENYIFGQCYYKASDGALFPLEVTVMLNKRLPDSRTSYVMTFLWSLNAGLAPETTQATLITSPFTFSYIREDD | intermediate effects | not significant | 
2 | E299V (protein) MKVSALKEKVSALKEKVSALKEKVSALKEKVSALKEGSGGGSGGGSGGGSNSIALKNNTLWTGPKPEANCIIEYGKQNPDSKLTLILVKNGGIVNGYVTLMGASDYVNTLFKNKNVSINVELYFDATGHILPDSSSLKTDLELKYKQTADFSARGFMPSTTAYPFVLPNAGTHNENYIFGQCYYKASDGALFPLEVTVMLNKRLPDSRTSYVMTFLWSLNAGLAPVTTQATLITSPFTFSYIREDD | intermediate effects | not significant | 
3 | K217E+F224S (protein) MKVSALKEKVSALKEKVSALKEKVSALKEKVSALKEGSGGGSGGGSGGGSNSIALKNNTLWTGPKPEANCIIEYGKQNPDSKLTLILVKNGGIVNGYVTLMGASDYVNTLFKNKNVSINVELYFDATGHILPDSSSLKTDLELEYKQTADSSARGFMPSTTAYPFVLPNAGTHNENYIFGQCYYKASDGALFPLEVTVMLNKRLPDSRTSYVMTFLWSLNAGLAPETTQATLITSPFTFSYIREDD |  |  | significantly higher
4 | V239D (protein) MKVSALKEKVSALKEKVSALKEKVSALKEKVSALKEGSGGGSGGGSGGGSNSIALKNNTLWTGPKPEANCIIEYGKQNPDSKLTLILVKNGGIVNGYVTLMGASDYVNTLFKNKNVSINVELYFDATGHILPDSSSLKTDLELKYKQTADFSARGFMPSTTAYPFDLPNAGTHNENYIFGQCYYKASDGALFPLEVTVMLNKRLPDSRTSYVMTFLWSLNAGLAPETTQATLITSPFTFSYIREDD |  |  | significantly higher
